Source: the DeepSol protein solubility set

Test: soluble on expression in E. coli; label from the status in PepcDB or PDB records

Soluble on expression in E. coli, not soluble:
MGSDKIHHHHHHMGDLTADVLVIGGGTAGFGAAVAAGRLGLDVVLLEAGTKVGGVMAFCPGMPWGAAYPQDESIGGLMQELTDRLMGMDPPMAEKRPCTLENFGPEIQYDHDAATTMMFEMLEEAGVRVFLGAVAFAPVMEGNRIAAVEFFDRRCPQRIAAKIVIDCSGDGDISAKAGVPFTLGDGQGNMMAVTLSFFMEGADWDRVFAENDPYFRRYAAKGIAEGRLHPHLAQLYLMKGFHPGTVFCNSVAIRGVDGTDPADVTRATQEGRRRCLQLAQFLRADVPGFEAAHMSQLGPTVGVRETRKLEGMYKVTGADLAAGTKFADGIVACDNPIDDVMRTSDQMTHDAMVERGGYYTIPFRSLLPKAVANLMFAGRILSADLVAFASVRGMPQCMAMGQATGTAAHLAIRDGAPVQQVDRAELVKLLSEQGVSRLLS, MGSDKIHHHHHHMGEIMKFYDREKELNYLKTYCQLEPNSILFVYGPKSSGKSTVMRRVIKELENSNIVFFYYNLRKYATPTRDEFLRVFFEKSDKKYLLNKLELNLGVCKFGIEENFDFNNLCLNDVFAKINESINAVVEEGKKPVLIIDELQKLKNIYFNGGKSLLNELFNLFVSLTKMEHLCHVICLTSDTLFIDEIYRNSTLKNASEYYLIDWLRKGTIRNILKEEGFSEEEINYALDYLSLPYEISQLINNKKLGLSVEQTIKQWINVEKDGLKYLIDTTDLDEEGLYNVLSKFKDKIKISYDKEVKKEEMKYLKFLIENEILFYDVINGIIKPTSIIEWHAIKEIINAMQ, MGSDKIHHHHHHMGELTIAKSAGFCFGVTRAVNMVYEAIEKENVPIYTYGPIIHNDEVVKDMEKNGVTVINDLDELSSHEKGVMIIRSHGISKAEYDRIKNCGFEVLNATCPFVSKIHRYVEDYSSKGYDIIIVGSPKHPEVCGIKGWADEKCHVTIINSPEDAENYMKNSTKKLCIVSQTTFNYNKFQDIVEIIAKKGYDITVLNTICNATEVRQTEARKVAQCSDVMIVIGDRHSSNTQKLFEICKNECKNTYYIQTSDEMDYTQIRSNNNVGITAGASTPNNIIEEVSKNVRNEL, MGSDKIHHHHHHMGESASGSDRSQKARGAFRVRSLQIRYKTSRPEIRQSWRSMLQRERPCKGGREDFEKGRRGNFSSPLRSVSLQGDCRTQLRSGKEALQFRETRRHTEQGGITMKVVVGIPSYNNAETISHVARTAAQGIVDFFDGDGMIVNSDGGSADGTRERFMETDTFGLPKESFVYEGLPGKGSAMRAIMEFALKQDAEAVVFLDADLRSVKPWWVERLAGPVLKGEADYVTPFYLRHRFDGTITNNVCFPMTAVLYGKKVRQPIGGDFGVGRKLLEIYLGKPKEIWNTDVARFGIDIWMTTTAINESGRVVQAALGTKVHDVKDPGKHLKGMFLQVVGTLFELVITYENVWKEIWKIEDVPIYGETPQEEVPSMSIDIGNLKKLARETLEEVEYIDRGILSEVKESGTLSLSSWVDTLYRSAVQYRKTRDKKVVENLLPFYFARTARFAEEVKSLSDEEAERYVYEQLDVFLEKKHSLREEWKVEDKR, MGSDKIHHHHHHMGFLAREKVHLKKVVIGGSQDWLKHSYKLFKAIMNRIFGYGNKKSHDQLLQESNQSMNQAQQSLSNRISQLDTQIAQLNFQLQNIQKNLQRSNNKQPSLRKQALKILNKRKQLENMKDSLDSQSWSMTQAQLTNDNLQNTMITINALKQTNNAMKAQYGKINIDKLQDMQDEMLDLIEQGDELQEVLAMNNNSGELDDISDAELDAELDALAQEDFTLPTSENSLGNDMPSYLLGANAPPAFIDEEPNLDTEDKNKALESAQ, MGSDKIHHHHHHMGIGRGYAVWSPRSIYLTDFVYANFLEELIMQTLIIYSTIDGQTLAICQKMKTIAEQAGEQVALVTLEQADALSLADFDKVLIGASIRYGKHRPELYQFVNRHHAVLDTKINGFFTVNVVARKPLKNTPETNPYMQKFLQLSLWQPQLLEVFAGKIDYPKYGFFDRTMIRFIMWMTKGPTDITGTFEFTDWEKVDAFGNRFSQH, MGSDKIHHHHHHMGIRSHLAIAAGKTSQWVLQTFFKGGSSYPGKLALKIDPKILDTLAKDYEIVVVTGTNGKTLTTALTVNILRQEFDEVLTNPTGANMEQGIVSTFLNAKAKKGQKKFAVLEIDEASLSRVTKYIQPKLFVFTNIFRDQMDRYGEIYTTYRLIMEGAAAAPEATILCNGDSPIFNSKETVNPRKYYGFNHLPPKEQLAHYNTDGVLCPKCNHILHYKMITYANLGDYYCPNCGFKRPELDVQLTEMVRMDNTSADFVIDGEEYGIAVGGMYNVYNALAATAVAEYYQVAPDKIRAGLAYDEKVFGRQETIKVGDKECTLVLVKNPVGLNQVIDMMGLAPYSFSLVSLLNANYADGIDVSWIWDGNHEAFADMDIPKVIAGGDRHEDMALRLKVAGIPEEKLLEIADLEQVISEIKTLPTDHVYILATYTAVLQLRKSLTAQGYIQGGMNGV, MGSDKIHHHHHHMGKIISKFVCHECGYETPKWLGKCPGCSAWNSLLEESISNKPLRRTAERVAAIPLNQLSAEDSPRFSSGLSEFDRVLGGGIVPGSLILLGGDPGIGKSTLLLQVAGLIAAAGKRILYLSGEESLQQIRLRASRLGINNDTIFLLNEQDIDLLHEYINDLDPDLIIIDSIQTVYSSKLSSIPGSVSQLRESTAAVMQIAKKMDKAVFLVGHVTKDGSLAGPKVLEHIVDVVVYFEGEKNFSFRLLRAAKNRFGATDEIALLEMSGQGLVEVPDPSYVFLSPGRDISSGTAIVASMEGSRPLLIEIQALVSSLGAGYPRRMVSGIDQNRLSLIIAVLEKRRGYTLSACDVYLKVSGGVFLKDPSVDLGIAAAVLSSYLEKPLAMDTVFIGEISLSGQIRPVSFLDLRLREIDRMGYKRVIVPTSPGRLAKSSHNMEILEVKSLDHFIDIVLEG, MGSDKIHHHHHHMGLNLSKGDMYKFVNYTWNPIKGKCLHDCSYCYMKQINPNANPPRLAEYELNTDLGCGRSIFIGSSTDMFAEDIPSEWIARVLDYCYQNRNMLLPNAYLLQSKNPKRFLEFINHPIMERVVFCTTIETNRFYPEIMNKAPRIDERVEAMEEIARLGRPTMVTAEPLMQFDHEEMVSFIRRCSPKLVNIGRNSCRRIVLPEPTQEEVQQLIAELKSLKSFTKVNVKDNALEWCK, MGSDKIHHHHHHMGNFLYGIDFGTSNSVLSIFDEDKNEIIETLSVPSILYFPDAYDPALPLQYYVGEDAIRYYISDGMKGRFMKSIKRVLPRTNFVETRIHTKSFNAAGLITLILKELKTKADAIIGMDCKKAIIGRPVYFDDDNTVNDAVAQKRLLQAAQQAGLSDIRFQYEPIGAAFAYERTISKKEHVLVADLGGGTTDFTFIELDPHKNNRKDRRSDIIATGGIYIGGDSFDSAFMWDKGTPYFGRGVTYESMPGKMVDVPPSFFSNICSWEKMNFFNGVKVQNDLRQYYNYSKQNDKLKNLITLTENNLGYSIFQSIEKTKVDLSIQSSSSFSYHKADIHIDEPIDLTAYNRIIQRDVTKINNYLESFLSKHAIVPESIDSLFLTGGTSMVQAIQALFKEKFPHIAITSGDNFISVSKGLAYSGYLFD, MGSDKIHHHHHHMGSSGMGVDANGKPIKRQPTTNNNNKKAGNNSNNQKKGNNQNNKNNKNQNGGNRNQNRQHHQPPMMQMVPPFGPMGPGGPGGPGFMGPPNGNMNFFNGQNRRNGSGKDTMDHRLTMWDKELLEIT, MGSDKIHHHHHHMGTCLLSGLSEPSGGISEHLRGQTDQLGFRQFPHGLSGITQPCRGHRAPLAGLHPRYLRFSQSTPAHFVILTTESMTPTPEIPEPHYIGHRQRLKKKFFKCGLQALHDYEAVELLLSYAIPRKDIKSLSKDLLERFGSLKGIMDAELEELTAVRGISAHAAGLVRMVKEMSALYLQEKAREKPQISCTGELLDFCKTALGGLKDENFCVLYLDTQNRIIAFETIQKGIVNQAVVYPRQVIERALSHKSSALILVHNHPSGFVKPSDADIRLTRTITDTAKLLDIMVHDHLIIGENRFFSFREEGIMPL, MGSDKIHHHHHHMGVQSAVRVHRAISEIGQDAWDACAASTGDPFVSYDFLSILEESGCVAARTGWAPQHLTVLDEADQVAGVMPLYLKSHSQGEYVFDHSWADAYERAGGRYYPKLQCSSPFSPVTGSRLIVRPDIDAAEGRSALMGGALTLCERMGASSLHVTFPVEDQWRWMGERGMLLRQDQQYHWENRGYETFDDFLGALSANRRKTIRRERRDAQEGLEIVALTGADLTEDHWDAFFAFYMDTGGRKWGRPYLNRPFFSLLGQRMADKVLLILARRPGGPFIAGALNLLGRDCLYGRHWGCVEDAPFLHFELCYYQAIEHAIRLGLPRVEAGAQGQHKIARGYLPSAVYSAHWIADPMLREPVARYLERERAAVESDMEMLTEEYSPFREER, MGSDKIHHHHHHMHGKLVEVADGVYAYIQGRGEWFVNNAGLIVGEEFSVVVDSVCNEQRAKEMISQFREVTAKDFRILINTHGHPDHVWTNHLFDAVAVAHEMGRQETLMAFVEIYQSLFPDLDFSGAKITPQNITFESRMKLYNDAEMQIIHPGVAHTRGDCYIYIPQKKVVFCGDLLFAKPCTPLAVGGSVRGSVNALRELLNLDAKIYVPGHGGLAGEEHLVEAIEYFEFVWEEAKKRHERGMGWYEAAMDIDLGEYAKWSEAERIVGNVARAYAEIEGRELEFAELVEVARKMLEYGGGRK, MGSDKIHHHHHHMHGREAEDGVRSNPTGRQLRFGAELRKLREQAGLSATDAGQLLGIKQTQVSNMEAGRVGVSADRVRTLACHYECSDKALVEAIAAMTGDRTRGWWEEYREILPVGLLDLAELEHHATRLRTAVTVHIPGLFQTTEYAREIFRQAVPELPQPDVEHRVSFRIKRQAILFRDPPTPHQIIVHEAALRMRFGGSDVTRDQLKYLTAMNEREHISVQVIPFDTGVLPGSGQSIYYAEGPVPQLDTVNLDQSHGPVFLDAGAQLRKYRGLLDRMESAALSPEDSQKFIHTILKAL, MGSDKIHHHHHHMHHESPIRRRKTRQIHVGKVAIGGDAPISVQSMTNTETRDIAATVAQIRRLEAVGADIVRISVPSMDAAEAFKTIRAQVETPLVADIHFDHRIALQVMEDGVDGLRINPGNIGSLDKTRLVVEMAKDKGIPIRIGVNAGSLEKDIQEKYGEPTPEALVESALRHVSILDELNFHDVKISVKASDIFLAVSAYRLLSEKVDYPLHLGITEAGGLRSGTVKSAIGLGLLLRDGIGDTIRVSLAADPVEEIRVGFDILKSLHLRQKGINLIACPSCSRQEFDVITTINALEARLEDILEPMDVSVIGCVVNGIGEAKEADIGLAGGDKRSILYYRGKQVDRVENNDIVDVLEKRIRAEIAERQATRHEG, MGSDKIHHHHHHMHHNTWKGIILQKQGLLKPQSVQQICQNLNGLQAQFQPYVHIGFRNRMTNEAFQNQDWQASLTRQWSLRRTVHAYLKSEIPLYIHEGRMASVDYLETVSWDGALPQVKKKFYQVILEALETGPMTREELKILCRAENIGVEEEKQVFNAWGGLLRYMVERGEIYQEYGVKRFHRLRDFQPLPKKEAELEIARRYFTGFGPVSLADARYYFKENKSTVLKWMEQLDLKTVEVAGEERFYLGELEEAELPDCLFVAGFDQLLLGYEKKANPFFNPKYIRNIYTLTGIVKPVVFYKGRFVATWKRDKGTILLDIFEDITQQEEKELEHYRQMFEKIL, MGSDKIHHHHHHMHKHADFFSYLSDHFQHTYWVPGNHEWYNSDMADRSGMLHEKIKDNVSLVNNAAVEQDGVQLIFSTLWSQISPAFAFQISQGMSDFHVIKYKGKPFSVEQFNRQHEESVSFIQKALQQKYAATTVVVSHHIPTFQHYPQQYKGSVLSEAFATELYDLIEAASPDYWIYGHHHSNVPDFTIGNTQLLTNQLGYVKCGEHAGFDRGKCLFRRGGH
